Test results from patent US20040259196A1, “T cell receptor variants expressed in mesenchymal cells and uses thereof” (priority 2001, published 2004).
Blank lines part the entries; values can stand above or below the molecule they belong to.

Legend:
[1] = tested on: anti-peptide SEQ ID NO:37 antibody; assay: Competition of antibody binding by pre-incubation with the immunizing peptide; set-up: species or system rabbit; settings: pre-incubation of purified immune serum with soluble peptide, 30 min, room temperature
Excerpt: FIGS. 2A-2F show flow cytometric analysis of J^intJ-Cβ2 expression by mesenchymal cells. Mouse embryonic fibroblasts (MEF) (2E) and different MBA-13 cell strains (1-3; 2A-2C, respectively) were stained with preimmunized (histogram I) or immunized (histogram II) purified antibodies from rabbit serum. The rabbits were immunized with a synthetic segment of SEQ ID NO:2, namely SEQ ID NO:37, with the sequence LAEPRGFVCGVE. As a second antibody, we used Fab FITC conjugated donkey anti-rabbit IgG. Staining with second antibody only gave a histogram shown in histogram III. Cells stained with rabbit polyclonal antibodies to irrelevant peptide 1121 of the sequence RGGGGGRGGLHD, similarly produced and purified, served as negative control (histogram IV). Competition of antibody binding was performed by pre-incubation of the purified immune serum with the specific immunizing peptide SEQ ID NO:37 for 30 min at room temperature (2D, histogram). Competition with irrelevant peptide 1121 served as negative control (data not shown). The results of one experiment, out of three performed, are shown.
This strongly supports the conclusion that J^int-Jβ2.6-C protein is present on the surface of the MBA-13 cells. It is noteworthy that thymocytes do express J^int-Jβ2.6-C on the mRNA level but are not reactive with the antibody (FIGS. 2F and 3). […]

[2] = target: J^int-Jβ2.6-C protein (truncated mesenchymal TCRβ lacking the V region) (mouse); assay: flow cytometry on MBA-13 cells
[3] = tested on: 293T cells; assay: Cell cycle flow cytometric analysis of transfected 293T cells; assay type: cell-based, human; settings: 293T cells co-transfected with pTα
Excerpt: FIG. 13 Recombinant mesenchymal TCRβ (GFP-J^int-Jβ2.6-C) in a preTCR-like complex causes apoptotic cell death upon overexpression. (A) Immunofluorescence analysis of cells transfected with cDNA constructs encoding a fusion protein of J^int-Jβ2.6-C linked to GFP, together with pTα HA vector. (B) Western blot analysis of extracts from 293T cells transfected with GFP-J^int-Jβ2.6-C together with HA-pTα (lane 1). Control GFP and HA vectors (lane 2), GFP vector and HA-pTα0 (lane 3), HA vector and GFP-J^int-Jβ2.6-C (lane 4) and untransfected cells (lane 5). Immunoblotting was performed with an anti-GFP monoclonal antibody. The position of the fusion protein, GFP-J^int-Jβ2.6-C is indicated (GFP-J^int) as is the position of GFP free protein (GFP). (C) Cell cycle flow cytometric analysis of 293T cells transfected with the indicated vectors. The cell cycle analysis of GFP negative cells that were treated with GFP-J^int-Jβ2.6-C and pTα but remained untransfected (C-I) serves as a representative control; similar patterns were observed following transfection with empty vectors or separately with GFP-J^int-Jβ2.6-C and pTα. […]
Next, we examined the results of overexpression of J^int-Jβ2.6-Cβ. A cDNA construct encoding a fusion protein of J^int-Jβ2.6-C N-terminally linked to green fluorescence protein (GFP) was transfected along with pTα into human 293T cells (FIG. 13). […]

Molecule: LAEPRGFVCGVE (listed as Mus musculus) [immunizing peptide]
- competition of antiserum staining of MBA-13 cells [1]: reduced the ability of the antiserum to stain the cells

- percent of the cell population stained [2]: 34%
Molecule: hamster anti-mouse TCRβ monoclonal antibody, clone H57-597

B1: GFP-J^int-Jβ2.6-Cβ: fusion protein of J^int-Jβ2.6-C N-terminally linked to green fluorescence protein (GFP), expressed from a cDNA construct (protein)
chain: MGEYLAEPRGFVCGVEPLCSYEQYFGPGTRLTVLEDLRNVTPPKVSLFEPSKAEIANKQKATLVCLARGFFPDHVELSWWVNGKEVHSGVSTDPQAYKESNYSYCLSSRLRVSATFWHNPRNHFRCQVQFHGLSEEDKWPEGSPKPVTQNISAEAWGRADCGITSASYHQGVLSATILYEILLGKATLYAVLVSGLVLMAMVKKKNS
modifications: left off: large carriers
notes: fusion protein of J^int-Jβ2.6-C N-terminally linked to green fluorescence protein (GFP), expressed from a cDNA construct
- shift of the population to sub-G1, indicating massive apoptosis [3]: 59%
